Laboratory results: paper PMC4476693, “Role of Subunit Exchange and Electrostatic Interactions on the Chaperone Activity of Mycobacterium leprae HSP18” (PLoS ONE, 2015)

Key:
[1] = target: the molecule itself; assay: SEC; analytical gel filtration (TSK-GEL G4000SWXL, HPLC), 25°C, 0.5 mg/ml protein in 50 mM phosphate buffer pH 7.5, no NaCl; column calibrated with molecular weight standards
[2] = target: the molecule itself; assay: SEC; analytical gel filtration (TSK-GEL G4000SWXL, HPLC), 25°C, 0.5 mg/ml protein in 50 mM phosphate buffer pH 7.5 with 0.05, 0.15 or 0.5 M NaCl; number of subunits printed for 0.5 M NaCl

B1: Mycobacterium leprae HSP18 (natural protein, UniProt P12809 1-148, looked up)
chain: MLMRTDPFRELDRFAEQVLGTSARPAVMPMDAWREGEEFVVEFDLPGIKADSLDIDIERNVVTVRAERPGVDPDREMLAAERPRGVFNRQLVLGENLDTERILASYQEGVLKLSIPVAERAKPRKISVDRGNNGHQTINKTAHEIIDA
notes: wild-type small heat shock protein HSP18 (18 kDa antigen) of Mycobacterium leprae; Large homo-oligomer: 29 subunits without NaCl, approximately 12 subunits in 0.5 M NaCl (gel filtration); also called 18 kDa antigen
- stoichiometry N [1]: 29 subunits
- stoichiometry N [2]: ~12 subunits
